Laboratory results from the DeepSol protein solubility set.

Assay: soluble on expression in E. coli; label from the status in PepcDB or PDB records

Sequence | soluble on expression in E. coli
MGGSHHHHHHGMASALRGLEEPGPRPTATPCGCVKPALETGNLLTEPVGYLESCFSAKNGTPRQPSICSYSRACLRIRKRIFNNPEHSLMGLEQFSHVWILFVFHKNGHLSCKAKVQPPRLNGAKTGVFSTRSPHRPNAIGLTLAKLEKVEGGAIYLSGIDMIHGTPVLDIKPYIAEYDSPQNVMEPLADFNLQNNQHTPNTVSQSDSKTDSCDQRQLSGCDEPQPHHSTKRKPKCPEDRTSEENYLTHSDTARIQQAFPMHREIAVDFGLESRRDQSSSVAEEQIGPYCPEKSFSEKGTDKKLERVEGAAVLQGSRAETQPMAPHCPAGRADGAPRSVVPAWVTEAPVATLEVRFTPHAEMDLGQLSSQDVGQASFKYFQSAEEAKRAIEAVLSADPRSVYRRKLCQDRLFYFTVDIAHVTCWFGDGFAEVLRIKPASEPVHMTGPVGSLVSLGS | not soluble
MNKKEIQAYQSAFEKFNPFYGVDFPITSVKLCELINKMRNDHNEKVVELRHDHLMNKIREFSEQVNAPNFRVVESSYKDTKGEDRKCYLLGKTECRAIAATESKSVCYMIMVYLDQLEQIFEKAKEAKATEFDRKLSKQGVTWREACRTVGIEHPDLALK | not soluble
MGSDKIHHHHHHMKVIKFGGSSLASSQQLQKVLAIVEADQKRKYVIVSAPGKRFDGDTKVTDLLIQYARQTIHHQDTQAVTAAIIDRYAEIGHGFNVPEAQLTPIFETIRNLPKQSYADNTYLMAAFKAHGERLNAQLVAAVFQQSGLNARYLDPKDAGMVVTDVPDDAQIIKSSYDQLAKWANSEQILVIPGFFAYNRNGQICTFSRGGSDITGAIIARGVHAERYENFTDVDAIYAVNPSLVAKPAAISEMTFTEMRELSYAGFSVFHDEALIPAIEDNITVNVKNTNHPEAPGTLIQSTREPNPHYPVTGIASSSSFCSLYLRKYLLNKEVGLGRKILTILENHHISYEHMPSGIDDLTIIFDEHQLTPELEKTLVAEISTAINPDEIYFTHDYSILMLVGENMRNRVGIMSRAATALANDNIKLIMVNQGASEISIMFGVHDNDADQAVIALYKEFFD | not soluble
MKGLYFQQSSTDEEITFVFQEKEDLPVTEDNFVKLQVKACALSQINTKLLAEMKMKKDLFPVGREIAGIVLDVGSKVSFFQPDDEVVGILPLDSEDPGLCEVVRVHEHYLVHKPEKVTWTEAAGSIRDGVRAYTALHYLSHLSPGKSVLIMDGASAFGTIAIQLAHHRGAKVISTACSLEDKQCLERFRPPIARVIDVSNGKVHVAESCLEETGGLGVDIVLDAGVRLYSKDDEPAVKLQLLPHKHDIITLLGVGGHWVTTEENLQLDPPDSHCLFLKGATLAFLNDEVWNLSNVQQGKYLCILKDVMEKLSTGVFRPQLDEPIPLYEAKVSMEAVQKNQGRKKQVVQF | soluble
MLKYQQIATEIETYIEEHQLQQGDKLPVLETLMAQFEVSKSTITKSLELLEQKGAIFQVRGSGIFVRKHKRKGYISLLSNQGFKKDLEDFNVTSKVIELDVRKPTPEAAENLNIGMDEDIYYVKRVRYINGQTLCYEESYYTKSIVTYLNNEIVSHSIFHYIREGLGLKIGFSDLFLHVGQLNEEEAEYLGLEAGLPKLYIESIFHLTNGQPFDYSKISYNYEQSQFVVQANSFLL | soluble
MVEKEKKDEEETRKITISVKGIRDDVYRNVSELARHTGKTIGEITNDAYRTFLGTVEGVRNVSQSFIEGAKGAIPRYIDNFKKLEITADDLKDLGQKVAFRNIDELTFKNITDEEFSKYVAFIDGVKVLKIPKTVKKTTVIKISTFVDEIIQE | not soluble
MSNKGGGQRSGEIGVDELWTVYKSFIRETGLARQHLDSFNRLVTQEIQKIIDSIREVRPQWRIYAGRRRYRRGRFEEHEIHLPDVKIVFGKARFKEPMAREVIESFDRRVTPFECRVRGITYSAPLMVEMTIVQDNMIEKTREVKIADFPVMVKSVLDPLSKYDEETVIEMGEDPGDPGGYFIINGSEKVIVAQEDLAVNRIIVNKSTAATARITHTAKAVSTVLGLRRQAIVDRMSDGTLEASLSRLRYRIPLVVLLRALGLEKDMEIMLAVSADPDVQREMLPSLEKGRALAPTKEDALKYLGNRIAPGQPLDVRIRRAEEFLDTQLLPHLGNRPEDRIKKAYFLAEMANRVLQLYLGKRGEDDKDFLGNKRLRLAGDLIAELFRESLEALANTMAQKLEEQLAERRQIRLDFLVRPTIISDRLKGAIATGNWGQDRTGISQQLDRTNWISLLSHLRRVISPLSRGQAHFEARDLHGSHWGRYCPFETPEGINCGLVKNLALSAYISVGVDESVVEEILVKDLGVAPLERILEEAKQAGEPPEIMLKGTKVFINGRPLGYHPNGAELARKIRELRRSDKLEVERPWEVSVYHLREGEIDELYVNTDSGRLMRPVVVVENGEPKLTREHVEKLSRGEITFWDLVKQGVVEMLDPEEEQNALIAELPWEVTKEHTHMELWVPAIVGVAAATIGYLEHNQSPRNTYQAAMAKQALGVYALNYRIRLDSHSYLLQYPQVPIVQTRMLDIMGYNERPAGQNMVVAIMSYTGYNIEDALIFNKGSIDMGLARAYFFRVYTGIENEYPGGERDRITLPKPDEVYDYRGAAAYAKLEADGIVAPETEVEGGEILIGRVSPPRFLGEGRVISMATVRRRDTSIPMRLGEKGVVDMVVISTTVERNKLVKVRVRNLRIPEIGDKFASRHGQKGVIGMIFPRYDMPYTEEGIEPDVILNPHAIPSRMTVGQLLEEIAGKLGAIKGRFVDATPFFKEDIDGLRIELLKEGYDPNAREVMYDGRTGQIIEAPITIGVAYYQRLYHMVADKIHARATGRVHLLTRQPTEGKARQGGLRFGEMERDCLVGHGASMLLRDRMLDNSDAYVMYVCNTCGNIAWFNRRKKVLECPIHGEEGDIRPVKVPYAFKLLLQEITSMMIKPELKVADKISVIRKVVGDYT | soluble
MKKCRICGKKAIIYMPHHRLALCREHFVEWFEKYTERTIKEFKMFTKKDKVLVAISGGKDSLALWHVLRKLGYEADGLYINLGIGEYSEKSKEKVLKFAEKINGKAIIVDLKEELAGIPELVKITSREACSVCGLVKRYNFNKVAKEHGYNVIATGHNLDDEASALLANVLNWNEKYLGRKYPVLEEEAGFVRKVKPFCKFTEKETALYALLNGIDFIEEECPFSEDATSVFYKKILNEIEERSPGTKLRFYLDYLRKIYPKFRKEEEKKELQPCKVCGEPTVGEICPVCRLREKVEASSG | soluble
KIKRMECFDISHTMGNQTVASCVVFNKEGPLKSDYRRFNIEGITGGDDYAAMEQVLQKRYERDLEEDKIPDIIFIDGGKGQLNRALNVFQHLQVKWDKNRPHLIGVAKGVDRRAGQEVLIISKQDREIHLPDDSLALHLIQHIRDESHNHAISGHRKKRQKAF | not soluble
MGSDKIHHHHHHVVVFCGMGTLGPSFPEVPWLRLGVMSTDPKPGAEHPHEVENLDNHECWRLLRSVSVGRLAVWVEDHPDIFPINYKVDHGTLVFRTADGTKLQAATGDTPVAVEADGVDADSGVAWSVVIKGQAAPVKNQQEVLDTVGLLLFPWQAGKKEHFVRITPDTVTGRRFKVTPPLTWWTPLDDATRSGFE | not soluble
MKKRNSMKLASLTVLLAGTTLFTPGFTVKAESTQSISNSSKVHDQKNRNGWKQVMQETIKIGAPGVLAKTSNKGKISSYTAGVADLSTKKPVKSDYRFRIGSVTKTFTATTVLQLVGENRVQLDDSIEKWLPGLIQGNGYDGNQITIRQLLNHTSGIAEYLKSKDADIMNSKKTYTAEEIVKIGLALPSDFSPGKGWSYSNTGYVILGMLIEKITGNSYAEEIEKRIIEPLDLPNTFLPGNSPVIPGKNHARGYVKMEETGELKDITYYNPSLANAAGDMISNADDLNKFFSSLLGGKLLKERELKEMLTTVPIEGKGIGDGYGLGIYETKLPNGVSVWGHGGSIPGFMTFAGGVIGGKHTFAVNVNSLGPVDILTQFDKMMQVEFNK | not soluble
MGSDKIHHHHHHLRIEQKLWRENTGWSDLSPQVDGLMPQLLIVFGTRKYLQEEVRFEEIKGFYPGAHIFGCSTAGEICATNVFEDALAITALEFEHTRIESRQIHLSQVQNSFQAGEYLASSLTHDDLSHVLVLSDGLHVNGSELLQGLTSSLPPGIAITGGMAGDGVSFEETLVFLDAPPTPDTIAVLGFYGNHLRVGYGSMGGFDPFGPKRLITRSAANVLYEMDGRSALELYKKYLGEHAEGLPATGVFFPLSISGEEVAESLVRTILAVNEEEQSLTFGGDVPTGAYARMMKANLDRLIDGAVTAAESILSVVNNASPELAILISCFGRRSILKQRTEEEVEAVSDVFGSGCMLTGFYSYGEISPFKPGEKPEFHNQTMTITTFREV | not soluble
MNRILLYVHFNKYNKISAHVYYQLEQMRSLFSKIVFISNSKVSHEDLKRLKNHCLIDEFLQRKNKGFDFSAWHDGLITMGFDKLEEFDSLTIMNDTCFGPIWEMAPYFENFEEKKAVDFWGITNNRGTKAFKEHVQSYFMTFKNQVIQNKVFQQFWQSIIEYENVQEVIQHYETQLTSILLNEGFSYQTVFDTRKAESSFMPHPDFSYYNPTAILKHHVPFIKVKAIDANQHIAPYLLNLIRETTNYPIDLIVSHMSQISLPDAKYLLSQKYLNCQRLAKQTCQKVAVHLHVFYVDLLDEFLTAFEDWNFHYDLFITTDSDIKRKEIKEILQRKGKTADIRVTGNRGRDIYPMLLLKDKLSQYDYIGHFHTKKSKEADFWAGESWRKELIDMLVKPADSILSAFETDDIGIIIADIPSFFRFNKIVNAWNEHLIAQEMMSLWRKMDVKKQIDFQAMDTFVMSYGTFVWFKYDALKSLFDLELTQNDIPSEPLPQNSILHAIERLLVYIAWGNSYDFRILEHHHHHH | not soluble
TMSSCVSSQPSSNRAAPQDELGGRGSSSSESQKPCEALRGLSSLSIHLGMESFIVVTECEPGCAVDLGLARDRPLEADGQEVPLDSSGSQARPHLSGRKLSLQERSQGGLAAGGSLDMNGRCICPSLPYSPVSSPQSSPRLPRRPTVESHHVSITGMQDCVQLNQYTLKDEIGKGSYGVVKLAYNENDNTYYAMKVLSKKKLIRQAGFPRRPPPRGTRPAPGGCIQPRGPIEQVYQEIAILKKLDHPNVVKLVEVLDDPNEDHLYMVFELVNQGPVMEVPTLKPLSEDQARFYFQDLIKGIEYLHYQKIIHRDIKPSNLLVGEDGHIKIADFGVSNEFKGSDALLSNTVGTPAFMAPESLSETRKIFSGKALDVWAMGVTLYCFVFGQCPFMDERIMCLHSKIKSQALEFPDQPDIAEDLKDLITRMLDKNPESRIVVPEIKLHPWVTRHGAEPLPSEDENCTLVEVTEEEVENSVKHIPSLATVILVKTMIRKRSFGNPFEGSRREERSLSAPGNLLTKKPTRECESLSELKGTKKKKGLDSMTSTVAAGWLDRRV | soluble
MGSDKIHHHHHHMREEAPSRAQRVIDNNDILFQCVRPYQKNNYIHRILNTSNQQWVASTGYAQIRTTELPNYIYHLLNTDEFNRKVMVRCTGSSYPAINSEDLATIHLYYTPDKKEQLKISRLLDLLDKRIATQNKIIEKLQSLIKGIAQHCIKESTSGNTYVKLGDICQITTGKLDANAQVDNGIYPFFTCAEQPFKIDSFAFDTEALLISGNGANLGYINYYKGKFNAYQRTVSIR | not soluble
MGSDKIHHHHHHMVSCGGDGTLNEVVNGIVNTDLAIAVLPMGTGSDFGKTIGIRNISDFLKAIKSGRTREVDLVAAQFANQSRRYFINILEIGFGAEVMNYVNSHKYLGRGSFKFGAFYMLSKMHPFNLRLIMDGKEYEFPTIEAIFANGRYFGGGMLASPYSEIDDGLLDVHVLKPFSRIRSAMNFRTIYDGSYLNRRICA | not soluble
MYNETPIKRRPSTRIYVGNVPIGDGAPIAVQSMTNTKTTDVEATVAQIRALEKVGADIVRVSVPTMDAAEAFKLIKQSVSVPLVADIHFDYRIALKVAEYGVDCLRINPGNIGNEERIRSVVECARDKNIPIRIGVNGGSLEKDLMDKYKEPTPEALLESAMRHVDILDRLNFDQFKVSVKASDVFLAVESYRLLAKQIRQPLHLGITEAGGARAGAVKSAVGLGMLLAEGIGDTLRISLAADPVEEIKVGFDILKSLRIRSRGINFIACPSCSRQEFDVISTVNELERRLEDVTTAMDVSIIGCVVNGPGEALVSHIGLTGGHRKSGYYDEGERQKERFDNDNLVDSLEAKIRAKASQMANRIQVKDTTEAAALEHHHHHH | not soluble
